According to the supplement of paper PMC9170038:

system: K4 kissing-loop RNA reporter; assay: apparent KD of K4 kissing-loop reporter; higher = weaker reporter binding; conditions: Eterna round: R107; input ligand: theophylline 20 uM
Procedure: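 RNA-MaP round R107: designed RNA switches with theophylline, tryptophan, arginine or FMN aptamers are transcribed on-chip within common flanks. They are titrated with a labelled K4 kissing-loop RNA reporter in RNA-MaP buffer (100 mM Tris pH 7.5, 80 mM KCl, 4 mM MgCl2), without ligand or with the indicated ligand. Median apparent KD per design.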
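Note: bound reporter read as fluorescence of individual clusters on recovered sequencing chips by microscopy, with normalized cluster intensities fitted with a binding model.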

**Q.** For “GUAUUGUGCCUGGAUACCAGACACCCGAGUGAUGUUCGGAGCAGAGUGAUGUUCUAAUAAGUCCCUUGGCAGCCGGUCGCAGUCG [Same State Theophylline B gf 4]”, which “apparent KD of K4 kissing-loop reporter” value is on record?
**A.** 535 nM

**Q.** For “AUACGCGAUAGCGUAUAUAACAAAUCAGAAGGAGCGUGGAAGUACACAGGUAGGUCGCUGAAAAUAGGACUAGUGAUGUUAGUUA [JR_Nu_SSArginiA_Sub026]”, which “apparent KD of K4 kissing-loop reporter” value is on record?
**A.** 172 nM

**Q.** How did the “apparent KD of K4 kissing-loop reporter” value turn out when “AACUUUUAAUGAAUUACAUUUUAUUUAUCUCGAGGACCGGUACGGCCGCCACUCGUACUAUAGUGAUGUUAUAGAUAAGUCCUAA [JR_ExcTryptoA_Sub019]” was run?
**A.** 233 nM

**Q.** Which “apparent KD of K4 kissing-loop reporter” value does the source give for “AGAAGGUCAAAGACCUUCGUGCACACUGAUACCAGUCGCGAAAGCGACCCUUGGCAGCAGGGCAGUGAUGUUGCCAAGUGCACAA [Omei KL Theo A SS A v2]” here?
**A.** 136 nM

**Q.** Which “apparent KD of K4 kissing-loop reporter” value does the source give for “UCGGAUGUUCUGUCGAGAUGAGCAAUAGCACGAGGACCGGUACGGCCGCCACUCGACCCAGUGAUGUUGGGUGGCUAAGUUCAGC [Geragean]” here?
**A.** 285 nM

**Q.** How did the “apparent KD of K4 kissing-loop reporter” value turn out when “GCCGUACGCAUGGAUACCAGUCUUUCACGACUGGACAUGGAGUGAUGUUUCGUGAUGCUAGACCCUUGGCAGCCAUGCGUACGGC” was run?
**A.** 329 nM

**Q.** With “UUAUCUAUAUUCGAUACCAGUACCCUUUGUGUUGAUCCUUUUAUCAGUGAUGUUGAUGUGUACCCUUGGCAGCGGGUAUGGGUUU [KL-XTheo-B16]” as the sequence, how does the “apparent KD of K4 kissing-loop reporter” value read?
**A.** 556 nM

**Q.** How did the “apparent KD of K4 kissing-loop reporter” value turn out when “AGGUUUUGAUUAGGAUAUGCACUGAGGAGGAGAAUAUAGUGAUGUUAUAUAAUAGGAAUUAGUAGAGUAGAAGGGAUUGAGGUUU [SSFMNB.U]” was run?
**A.** 248 nM

**Q.** How did the “apparent KD of K4 kissing-loop reporter” value turn out when “UUGUUUGGUUGAGAGGUUGGGCGAGAUGAUACCAGUAUAGUAGAGUACCCUUGGCAGCAUAGGAGAGAUAUAGUGAUGUUGUAUG [SSTheophA.U]” was run?
**A.** 482 nM

**Q.** Which “apparent KD of K4 kissing-loop reporter” value does the source give for “GUCCUGAGUGAUGUUCGGGUCGUUCGGGAAGGAGCGCCCGCAAGGGCAGGUAGGUCGCCCGGAUCUCUCAGGUAACUGAGAGACC [#2 Same State - Arginine A Attempt #29 (HarryS)]” here?
**A.** 554 nM

**Q.** How did the “apparent KD of K4 kissing-loop reporter” value turn out when “UGACUGGACUGAAGGAGCGCGAAACUCCUAGUGAUGUUAGGAAAACGAGACAAAGUCUCGACGCAGGUAGGUCGCAGUCUAGUCU” was run?
**A.** 115 nM

**Q.** With “UCGACAGUGAACGAUACCAGCGUCACGUGGCUGGUGGUCACAUGAGUGAUGUUCAUGUAACGCCCUUGGCAGCGUGCACGUAUCC [KL-XTheo-B9]” as the sequence, how does the “apparent KD of K4 kissing-loop reporter” value read?
**A.** 199 nM

**Q.** Which “apparent KD of K4 kissing-loop reporter” value does the source give for “GGGCGUGGCGCGGCCGCCACUGCGCCUGGGUGCUCGCUGAGUGAUGUUCGUCGGCGGUUGGGUGGUAGGACCGGGUGCUGGCCGG [BDazzled - #12 SS Tryptophan B]” here?
**A.** 595 nM

**Q.** With “GGCCUGGUCGCCUAGUGAUUGUCGGUAGGACGAGGACCGGUACGGCCGCCACUCGGCUUACCCAGUGAUGUUGGGUAUCCGUGGC [Onercelama]” as the sequence, how does the “apparent KD of K4 kissing-loop reporter” value read?
**A.** 176 nM

**Q.** How did the “apparent KD of K4 kissing-loop reporter” value turn out when “UGCACGGGCUCGGCCGCCACUCCAGCGGGUCGAAAGGUCCGCUACUGAGUGAUGUUCGGUUGGAGGAGGACCGGGAGCCCGUGCA [#2 Exclusion - Tryptophan B Attempt #28 (HarryS)]” was run?
**A.** 115 nM

**Q.** With “AGUGAUGUAUGGCGGUUGGUCACUUAGGAUCAGGAUAUAUAAACAAAUAGAAGGGAUGGCGGAGUGAUGUUCCGCCGGCCGCCAU [FMN A Exl V2]” as the sequence, how does the “apparent KD of K4 kissing-loop reporter” value read?
**A.** 191 nM

**Q.** Which “apparent KD of K4 kissing-loop reporter” value does the source give for “UUUGGCCACAGAGAUACCAGUCAUAUCGCUCUGGAGUGAUGUUCCGGAACAUGCGGAGAAGACCCUUGGCAGCUCAUGACGGUAA [Exclusion Theophylline B GF 2]” here?
**A.** 201 nM

**Q.** For “GGGUCUGCUCGAAGGAGCGCCCUGACAGGUUGCUGCCGUGGGCAGUGAUGUUGCUCAGUCCGGCAGGUAGGUCGCGAGCAGACCC”, which “apparent KD of K4 kissing-loop reporter” value is on record?
**A.** 89.8 nM

**Q.** For “GGUCGAGUGAUGUUCGAUGUAAUGCAUUCAGAGGAUAUAGGAUUGGCUAGAAGGCUGAAUCGUUCUUCGAGUGAUGUUCGAGGAU [Same State FMN A GF 7]”, which “apparent KD of K4 kissing-loop reporter” value is on record?
**A.** 244 nM

**Q.** With “UGGAGUUGACGAAAAGUCAACUCCUGAGAAGGAGCGGACGAAAGUCCAGGUAGGUCGCUCACUACCAGUGAUGUUGGUACUUUAA” as the sequence, how does the “apparent KD of K4 kissing-loop reporter” value read?
**A.** 361 nM

**Q.** How did the “apparent KD of K4 kissing-loop reporter” value turn out when “ACAGAGGUAACCUGCAGUGAUGUUGCGGAUACCAGCUCACGAAACAGCCCUUGGCAGCCGCCGUCACUAACACGGUGGAUACAGU [theeternabot_exclusion_KL_Theo_A_49]” was run?
**A.** 178 nM

**Q.** Which “apparent KD of K4 kissing-loop reporter” value does the source give for “UGCAGUGAUGUUGCUAUUUUUCUUGAUUAACGAGGACCGGUACGGCCGCCACUCGAUUUCUCUCUAAUCCAGUAUGUUGUUUAAU [whbob_EX_Tryp_A_t4]” here?
**A.** 143 nM

**Q.** Which “apparent KD of K4 kissing-loop reporter” value does the source give for “CCUGAAUCAGUGAGUGAUGUUCACGUCGAUACCAGCUAGGAUACUAGCCCUUGGCAGCGACAAUUGCCAAGUGUGGCUAGUCAAA [Theo B SS t8]” here?
**A.** 148 nM

**Q.** How did the “apparent KD of K4 kissing-loop reporter” value turn out when “AGAACUGUCUGAGAUACCAGCCAGGAAGUGAUGUUUCCAGCUCGACGAAAGUCGAGCCAUGGCCCUUGGCAGCUCAGACAGUUCA [Omei KL Theo B SS A v4]” was run?
**A.** 118 nM

**Q.** “GGAGUUACCUGGGAUACCAGUCGGAGUCCGAGAGCUCGGAGUGAUGUUCUGGGAUGUUUCGGCCCUUGGCAGCUCUGGGACUCCC [#2 Exclusion - Theophylline B Attempt #10 (HarryS)]” was tested. Which “apparent KD of K4 kissing-loop reporter” value did it give?
**A.** 249 nM

**Q.** How did the “apparent KD of K4 kissing-loop reporter” value turn out when “ACGUAGUUCUAGGAUACCAGCCAAAUAGCCAGGACGAGAGUCCUGGCUGCCAGUGAUGUUGGCCCUUGGCAGCCUAGAACUACGA [Theo B Ex Mod Omei v10]” was run?
**A.** 233 nM

**Q.** For “GCAUCCUCUGCAGGAUAUCGCGGAGUGAUGUUCCGCGCAUGCCAUAGCGAAAGCUAUGGCAUGCGACGAGAAGGGCAGAGGAUGC”, which “apparent KD of K4 kissing-loop reporter” value is on record?
**A.** 157 nM
